Here are results for one molecule from publication PMC5153404, “Analysis of the Interaction between Globular Head Modules of Human C1q and Its Candidate Receptor gC1qR” (Frontiers in Immunology, 2016).

The target in this experiment is T1, Human C1q (human, UniProt P02745 23-245; P02746 28-253; P02747 29-245).
T1 construct: C1q A chain, human, from plasma; C1q B chain, human, from plasma; C1q C chain, human, from plasma; 18 polypeptides (6A, 6B, 6C), 460 kDa, as the introduction says; also called full-length C1q; source: purified from human plasma (IgG-Sepharose, HiTrap Protein G); copies: 6 + 6 + 6
The experiment can be described thus: ELISA; human C1q coated on wells (5, 2.5, 1.25, 0.625 μg/well); 2.5 μg gC1qR in 50 mM Tris-HCl pH 8.0, 100 mM NaCl, 5 mM CaCl2; 1 h at 37°C, then 1 h at 4°C; detected with anti-gC1qR polyclonal antibody and Protein A-HRP. Conditions: both partners purified. For orientation: In an ELISA, binding on a coated surface is turned into a signal by an enzyme label.

T1 sequence (P02745 23-245, chain 1 of 3): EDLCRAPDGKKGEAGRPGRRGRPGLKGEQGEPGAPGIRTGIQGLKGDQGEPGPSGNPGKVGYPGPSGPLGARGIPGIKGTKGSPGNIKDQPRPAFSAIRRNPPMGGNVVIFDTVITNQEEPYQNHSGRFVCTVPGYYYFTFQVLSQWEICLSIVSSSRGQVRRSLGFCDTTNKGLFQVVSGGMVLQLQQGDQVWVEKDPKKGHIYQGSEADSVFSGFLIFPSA
T1 sequence (P02746 28-253, chain 2 of 3): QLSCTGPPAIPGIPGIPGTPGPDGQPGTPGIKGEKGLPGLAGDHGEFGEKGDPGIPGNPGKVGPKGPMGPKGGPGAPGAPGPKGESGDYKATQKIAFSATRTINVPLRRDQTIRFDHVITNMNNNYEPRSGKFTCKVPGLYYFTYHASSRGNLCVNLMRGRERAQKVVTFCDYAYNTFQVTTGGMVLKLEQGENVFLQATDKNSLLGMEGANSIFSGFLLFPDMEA
T1 sequence (P02747 29-245, chain 3 of 3): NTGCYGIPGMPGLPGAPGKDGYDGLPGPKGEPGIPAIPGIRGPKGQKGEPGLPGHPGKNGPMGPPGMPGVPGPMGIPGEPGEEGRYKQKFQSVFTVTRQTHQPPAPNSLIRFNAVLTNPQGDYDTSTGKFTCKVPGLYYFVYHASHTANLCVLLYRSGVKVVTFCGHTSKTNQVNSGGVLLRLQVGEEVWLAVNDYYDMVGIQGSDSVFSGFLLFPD

B1: Recombinant mature human gC1qR (residues 74-282) (receptor, UniProt Q07021 74-282, looked up)
chain: LHTDGDKAFVDFLSDEIKEERKIQKHKTLPKMSGGWELELNGTEAKLVRKVAGEKITVTFNINNSIPPTFDGEEEPSQGQKVEEQEPELTSTPNFVVEVIKNDDGKKALVLDCHYPEDEVGQEDEAESDIFSIREVSFQSTGESEWKDTNYTLNTDSLDWALYDHLMDFLADRGVDNTFADELVELSTALEHQEYITFLEDLKSFVKSQ
Consider B1, for which the binding result is “binds”.
